Experiments:
[1] = test system: T1, VEGF-121 (Homo sapiens), P15692-9; experiment: filter
T1 sequence: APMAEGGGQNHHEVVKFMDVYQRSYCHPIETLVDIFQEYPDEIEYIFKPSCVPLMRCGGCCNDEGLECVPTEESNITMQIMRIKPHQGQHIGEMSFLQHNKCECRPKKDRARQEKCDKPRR

[2] = target: PDGF-BB (platelet-derived growth factor BB) (Homo sapiens) (UniProt P01127); experiment: filter
[3] = all Z are BndU, rest DNA, SB18T, 37 C
[4] = all P are NapdU, rest DNA, SB18T, 37 C

Chain of PDGF-BB (platelet-derived growth factor BB) (Homo sapiens) (P01127 82-190): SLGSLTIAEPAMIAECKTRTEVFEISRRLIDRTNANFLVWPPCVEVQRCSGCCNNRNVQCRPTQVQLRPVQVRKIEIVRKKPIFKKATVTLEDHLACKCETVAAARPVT

CCCTCCATCGCCGTTCAAGTGCTTGTAGGATTTAAATGGAATTGGAGGA [4867-15_33]
Kd ([1]; P=Nap-dU, C3 spacer at 10): 0.12 nM

CCCTCCATCAGCCTTCAAGTGCTTGTAGGATTTAAATGGAATTGGAGGA [4867-15_37]
Kd ([1]; P=Nap-dU, C3 spacer at 14): 30 nM

CCCTCCATCAGCCGTTCAAGTGCTTGTAGGATTTAAATGGAATTGAGGA [4867-15_69]
Kd ([1]; P=Nap-dU, C3 spacer at 46): 0.77 nM

CCGTTCAAGTGCTTGTAGGATTTAAATGG [4867-31_478]
Kd ([1]; as 4867-31_192, PS 25,26): 0.019 nM

CCGTTCAAGTGCTTGTAGGATTTAAATGG [4867-31_444]
Kd ([1]; as 4867-31_192 plus PS 3' of G28, 3'-idT, PS walk): 0.0075 nM

AGCCGTTCAAGTGCTTGTAGGATTTAAATGGA [4867-31_74]
Kd ([1]; P=Nap-dU, 2'-OMe A10): 3.14 nM

CCGTTCAAGTGCTTGTAGGATTTAAATGG [4867-31_441]
Kd ([1]; as 4867-31_192, PS 3' of 17 as printed, 3' inverted dT): 0.017 nM

CCGTTCAAGTGCTTGTAGGATTTAAATGG [4867-31_483]
Kd ([1]; as 4867-31_192, PS 24,25): 0.032 nM

CCGTTCAAGTGCTTGTAGGATTTAAATGG [4867-31_443]
Kd ([1]; as 4867-31_192, PS 3' of 18, 3' inverted dT): 0.0085 nM

CCGTTGAAGTGCTTGTAGGATTTAAATGGA [4867-31_146]
Kd ([1]; P=Nap-dU): 5.98 nM

AGCCGTTCAAGTGCTTGTAGGATTTAAATGGA [4867-31_83]
Kd ([1]; P=Nap-dU, 2'-OMe A19): 0.1 nM

AGCCGTTCAAGTGCTTGTAGGATTTAAATGGA [4867-31_66]
Kd ([1]; P=Nap-dU, 2'-OMe G2): 0.17 nM

AGCCGTTCAAGTGCTTGTAGGATTTAAATGGA [4867-31_78]
Kd ([1]; P=Nap-dU, 2'-OMe C14): 0.24 nM

CCGTTCAAGTGCTTGTATGATTTAAATGGA [4867-31_153]
Kd ([1]; P=Nap-dU): 0.21 nM

AGCCGTTCAAGTGCTTGTAGGATTTAAATGGA [4867-31_85]
Kd ([1]; P=Nap-dU, 2'-OMe G21): 25.8 nM

CCGTTCAAGTGCTTGTAGGATTTAAATGG [4867-31_157]
Kd ([1]; NapdU at P, 2'-OMe 13): 1.5 nM

AGCCGTTCAAGTGCTTGTAGGATTTAAATGGA [4867-31_67]
Kd ([1]; P=Nap-dU, 2'-OMe C3 (inferred, superscript lost)): 0.33 nM

CCGTTCAAGTGCTTGTAGGATTTAAATGG [4867-31_158]
Kd ([1]; NapdU at P, 2'-OMe 14): 1.7 nM

CCCTCCATCAGCCGTTAAGTGCTTGTAGGATTTAAATGGAATTGGAGGA [4867-15_40]
Kd ([1]; P=Nap-dU, C3 spacer at 17): 0.17 nM

CCCTCCATCAGCGTTCAAGTGCTTGTAGGATTTAAATGGAATTGGAGGA [4867-15_35]
Kd ([1]; P=Nap-dU, C3 spacer at 12): 3.4 nM

CCCTCCATCAGCCGTTCAAGTGCTTGTAGGATTTAAATGAATTGGAGGA [4867-15_62]
Kd ([1]; P=Nap-dU, C3 spacer at 39): 53 nM

CCGTTCAAGTGCTTTAGATTTAAATGG [4867-31_185]
Kd ([1]; NapdU at P, C3 spacer 15,18, 2'-OMe 6,9,12,17,28,29): 0.26 nM

CCCTCCATCAGCCGTTCAGTGCTTGTAGGATTTAAATGGAATTGGAGGA [4867-15_41]
Kd ([1]; P=Nap-dU, C3 spacer at 18): 13 nM

CCGTTCAAGTGCTTGTAGGATTTAAATGG [4867-31_421]
Kd ([1]; as 4867-31_192, PS 3' of 16, 3' inverted dT): 0.015 nM

CCGTTCAAGTGCTTGTACGATTTAAATGGA [4867-31_152]
Kd ([1]; P=Nap-dU): 0.32 nM

CCCTCCATCAGCCGTTCAAGTGCTTTAGGATTTAAATGGAATTGGAGGA [4867-15-49]
Kd ([1]; C3 spacer at 26 as stated in text numbering is nearby G (single V in SEQ:614), all P are NapdU, C3 spacer at G26 tolerated): 0.079 nM

AGCCGTTCAAGTGCTTGTAGGATTTAAATGGA [4867-31_91]
Kd ([1]; P=Nap-dU, 2'-OMe A27): 0.35 nM

AGCCGTTAAGTGCTTGTAGGATTTAAATGGA [4867-31_97]
Kd ([1]; P=Nap-dU, C3 spacer at 8): 7.3 nM

CCGTTCAAGTGCTTGTAGGATTTAAATGG [4867-31_163]
Kd ([1]; NapdU at P, 2'-OMe 27): 0.26 nM

AGCCGTTCAAGTGCTTGTAGGATTTAAATGGA [4867-31_84]
Kd ([1]; P=Nap-dU, 2'-OMe G20): 0.21 nM

CCGTTCAAGTGCTTGTAGGATTTAAATGG [4867-31_425]
Kd ([1]; as 4867-31_192, PS 3' of 22 or 23 (printed P1-P2), 3' inverted dT): 0.016 nM

CCCTCCATCAGCCGTTCAAGTGCTTGTAGGATTTAAATGGAATTGGAGGA [4867-31_2 (4867-15_2, 50-mer)]
Kd ([1]; all P are NapdU, rest DNA, 50-mer parent): 0.15 nM

CCGTTCAAGTGCTTGTAGGATTTAAATGG [4867-31_159]
Kd ([1]; NapdU at P, 2'-OMe 16): 0.56 nM

CCGTTCAAGTGCTTGTAGGATTTAAATGG [4867-31_482]
Kd ([1]; as 4867-31_192, PS 24,25,26): 0.024 nM

CCCTCCATCAGCCGTTCAAGTGCTTGTAGGATTTAAATGGAATGGAGGA [4867-15_67]
Kd ([1]; P=Nap-dU, C3 spacer at 44): 0.15 nM

CCGTTCAAGTGCTTGTAGGATTTAAATGGCGACAGCATGTATGCACATCT [5169-4_93 (VEGF-6Heg-PDGF)]
Kd ([1]; P NapdU, superscript 1 2'-OMe, six Heg linkers): 0.052 nM

CCGTTCAAGTGCTTGTAGGATTTAAATGG [4867-31_417]
Kd ([1]; as 4867-31_192, PS 3' of 11, 3' inverted dT): 0.0094 nM

AGCCGTTCAAGTGCTTGTAGGATTTAAATGGA [4867-31_92]
Kd ([1]; P=Nap-dU, 2'-OMe A28): 8.87 nM

CCGTTCAAGTGCTTGTAGGATTTAAATGG [4867-31_439]
Kd ([1]; as 4867-31_192, PS 3' of 9, 3' inverted dT): 0.024 nM

CCGTTCAAGTGCTTGTAGGATTTAAATGG [4867-31_438]
Kd ([1]; as 4867-31_192, PS 3' of 6, 3' inverted dT): 0.013 nM

TTACGACTACGTTACACGCGTTTATAGCG [4149-8_38]
Kd ([2]; BndU at 1,2,8,12,13,21,22,23,25, rest DNA, SB18T, 37 C, text p191 gives 20 pM, Table 1a 30 pM): 0.05 nM

ACTACGTTACACGCGTTTATAGCGTCAACCCGAGTGAACA [4149-8_15]
Kd ([2]; Bn-dU): > 10 nM

CCTCGACAGCATGTATGCACATCTAGAGGCTACCCAGTGAATGAGGA [5169-4_4]
Kd ([2]; NapdU at P, SB18T, 37 C): 0.027 nM

CGACAGCATGTATGCACATCT [5169-4_46]
Kd ([2]; NapdU at P, 2'-OMe 12): 0.093 nM

CGACAGCATGTATGCACATCT [5169-4_40]
Kd ([2]; NapdU at P, 2'-OMe 6): 0.024 nM

TTACGTTACCGCGTTTATAGCG [4149-8_379]
Kd ([2]; BndU at 1,8,16,17,20, MBndU at 2, Heg at 5, C3 at 11, 2'-OMe at A3,C12,A19,A21,G24 and 2'-OMe-BnU at 7,18, Table 30 gives 1.6E-11, Table 31 5.2E-11): 0.02 nM

CGACAGCATGTATGCACATCTAGAGGCTACCCAGTGA [5169-4_15]
Kd ([2]; NapdU at P): 0.019 nM

CGACAGCATGTATGCACATCT [5169-4_43]
Kd ([2]; NapdU at P, 2'-OMe 3): 0.16 nM

CGACAGCATGTATGCACATCT [5169-4_158]
Kd ([2]; as 5169-4_146, PS 13, 3' inverted dT): 0.019 nM

CTTACGACTACGTTACACGCGTTTATAGC [4149-8_31]
Kd [2, 3]: 0.3 nM

TTACGACTACGTACACGCGTTTATAGCG [4149-8_76]
Kd ([2]; Bn-dU, C3 at 13): > 10 nM

CGACAGCATGTATGCACATCT [5169-4_159]
Kd ([2]; as 5169-4_146, PS 19, 3' inverted dT): 0.015 nM

CGACAGCATGTATGCACATCTAGAGGCTACCCAGT [5169-4_17]
Kd ([2]; NapdU at P): 0.02 nM

CGACAGCATGTATGCACATCT [5169-4_175]
Kd ([2]; as 5169-4_146, PS 15, 3' inverted dT): 0.0069 nM

CGACAGCATGTATGCACATCT [5169-4_54]
Kd ([2]; NapdU at 11,13,19,21, dT at 9, dT substitution): 44 nM

CGACAGCATGTATGCACATCT [5169-4_47]
Kd ([2]; NapdU at P, 2'-OMe 16): 0.016 nM

CGACAGCATGTATGCACATCT [5169-4_157]
Kd ([2]; as 5169-4_146, PS 12, 3' inverted dT): 0.018 nM

TTACGTTACCGCGTTTATAGCG [4149-8_456]
Kd ([2]; BndU, NapdU 16, 2'-OMe 3,7,12,18,19,21,24, PS 8,9,15,16,17, Heg 5, C3 11): 0.027 nM

TTACGTTACACGCGTTTATAGCG [4149-8_278]
Kd ([2]; Bn-dU, Tyr-dU1, FBn-dU7, Ib-dU8, 2Nap-dU16, Pe-dU17, Th-dU18, Heg5, 2'-OMe A3, A11, A21, G24): > 10 nM

CGACAGCATGTATGCACATCT [5169-4_80]
Kd ([2]; NapdU at P, 2'-OMe 7,16,18): 0.0061 nM

CTGCCTCGACAGCATGTATGCACATCTAGAGGCTACCCAGTGAATGAGGA [5169-4_3]
Kd [2, 4]: 0.029 nM

CGACTACGTTACACGCGTTTATAGCGTCAACCCGAGTGAACA [4149-8_14]
Kd [2, 3]: 13 nM

TTACGTTACCGCGTTTATAGCG [4149-8_420]
Kd ([2]; as 4149-8_379, 2'-OMe 15, iBudU 16): 1.4 nM

CGACAGCATGTATGCACATCT [5169-4_151]
Kd ([2]; as 5169-4_146 plus PS 3' of A3, 3'-idT): 0.006 nM

ACACGCGTTTATAGCGTCAACCCGAGTGAACA [4149-8_19]
Kd [2, 3]: 74 nM

CGACAGCATGTATGCACATCT [5169-4_128]
Kd ([2]; NapdU at P, 2'-OMe 13,14,15): 0.099 nM

TTACGACTACGTTACACGCGTTTA [4149-8_43]
Kd ([2]; Bn-dU): > 10 nM

TTACGTTACACGCGTTTATAGCG [4149-8_179]
Kd ([2]; Bn-dU, Trp-dU16, Heg5, 2'-OMe A3, A11, A21, G24): > 10 nM

TTACGTTACCGCGTTTATAGCG [4149-8_423]
Kd ([2]; as 4149-8_379, 2'-OMe 13, NapdU 16): 0.033 nM

TTACGTTACCGCGTTTATAGCG [4149-8_435]
Kd ([2]; as 4149-8_379, BndU 2, NapdU 16, PS 9,15,17): 0.016 nM

TTACGTTACACGCGTTTATAGCGNT [4149-8_342]
Kd ([2]; 4149-8_260 3'-3' dimer, 3 Heg, doubler): 0.0181 nM

CGACAGCATGTATGCACATCT [5169-4_118]
Kd ([2]; NapdU at P, 2'-OMe 2,4,17): 0.56 nM

CGACAGCATGTATGCACATCTAGAGGCT [5169-4_19]
Kd [2, 4]: 0.012 nM

CGACAGCATGTATGCACATCT [5169-4_51]
Kd ([2]; NapdU at P, 2'-OMe 13): 0.32 nM

CTTACGACTACGTTACACGCGTTTATAGCGTCAACCCGA [4149-8_26]
Kd [2, 3]: 0.08 nM

GACAGCATGTATGCACATCTAGAG [5169-4_32]
Kd ([2]; NapdU at P): 0.053 nM

CGACAGCATGTATGCACATCT [5169-4_132]
Kd ([2]; NapdU at P, 2'-OMe 1,2,3): 0.42 nM

CGACAGCATGTATGCACATCT [5169-4_52]
Kd ([2]; NapdU at P, 2'-OMe 19): 0.31 nM

Reference: patent US20160177307
